Values of other authors as cited in patent publication US5576301A, “Low molecular growth potentiating peptides” (The Penn State Research Foundation, priority 1994, dated 1996).

Legend:
[1] = tested on: tibial growth plate of hypophysectomized rats; settings: hormone standard
[2] = comparison values
patients = patients treated with recombinant hGH

Row | Molecule | potency of GH standard preparation [1] | also measured
1 | Kabi hGH standard: human growth hormone standard obtained from Kabi Vitrum, Sweden | 3.0 IU/mg protein | –
2 | human monomeric growth hormone: monomeric 22K human growth hormone | – | pI [2]: 5.1-5.6
3 | recombinant form of hGH: recombinant human growth hormone used in the United States to treat patients | – | patients treated that develop circulating antibodies (patients): 20~30%
4 | USDA bovine GH preparation: bovine growth hormone standard used in the tibial line bioassay (protein, UniProt P01246 27-217, looked up) Somatotropin: AFPAMSLSGLFANAVLRAQHLHQLAADTFKEFERTYIPEGQRYSIQNTQVAFCFSETIPAPTGKNEAQQKSDLELLRISLLLIQSWLGPLQFLSRVFTNSLVFGTSDRVYEKLKDLEEGILALMRELEDGTPRAGQILKQTYDKFDTNMRSDDALLKNYGLLSCFRKDLHKTETYLRVMKCRRFGEASCAF | 1.4 IU/mg protein | –
